Measurements from patent CN108822212A (UNIV BEIJING, dated 2018).

What was measured:
[1] = target: 全长KIT WT (Ba/F3稳定细胞系表面) (human) (UniProt P10721); assay: cell-based or functional assay
[2] = target: 全长KIT ITD (Ba/F3稳定细胞系表面) (human) (UniProt P10721); assay: cell-based or functional assay
KIT WT D4-5蛋白 = target: T1, KIT WT D4-5蛋白 (human, UniProt P10721 309-519, limits assumed); assay: SPR, Biacore T200, 3G2 amine-coupled on CM5, KIT WT D4-5 as analyte (3.125-100 nM)
T1 construct: domain: 第4、5个Ig结构域 (D4-5); Expressed in HEK293 cells by BacMam; also called KIT WT的第4、5个结构域

KIT ITD D4-5蛋白 = target: T2, KIT ITD D4-5蛋白 (human, UniProt P10721 309-519); assay: SPR, Biacore T200, 3G2 amine-coupled on CM5, KIT ITD D4-5 as analyte (3.125-100 nM)
T2 chain: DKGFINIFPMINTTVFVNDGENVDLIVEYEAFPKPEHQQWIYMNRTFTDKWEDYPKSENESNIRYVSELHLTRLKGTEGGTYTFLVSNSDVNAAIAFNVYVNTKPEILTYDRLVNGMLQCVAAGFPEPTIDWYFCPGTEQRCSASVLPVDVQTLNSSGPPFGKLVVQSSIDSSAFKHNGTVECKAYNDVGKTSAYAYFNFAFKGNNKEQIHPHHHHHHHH

B1: 单克隆抗体3G2 (antibody, V domains shown)
VH: EVQLQESGPGLVKPSQSLSLTCTVAGYSITSDYAWNWIRQFPGNRLEWVGYISYSGSTSYNPSLKSRISITRDTSQNQFFLQLNSVTTEDTATYYCTRWRYRYTLAMDYWGQGTSVTVSS
VL: DIVLTQSPAITAASLGQKVTITCSASSSISYIHWYQQKSGTSPKPWIYEIYKLASGVPPRFSGSGSGTSYSLTISSMEAEDAAIYYCQQWNYPFTFGSGTKLEIKR
notes: also called 3G2抗体; not shown: hinge and Fc of the mouse hybridoma antibody
percent apoptosis of KIT WT Ba/F3 cells with 3G2 [1]: 10.9% | IC50 of cell survival (CCK8) of KIT ITD Ba/F3 cells [2]: 1.29 nM | percent of KIT ITD Ba/F3 cells in early apoptosis at 10 nM 3G2 [2]: 41% | percent of KIT ITD Ba/F3 cells in late apoptosis at 10 nM 3G2 [2]: 14.5% | percent of KIT ITD Ba/F3 cells in programmed apoptosis at 10 nM 3G2 (Annexin V-FITC/7-AAD) [2]: 55.5% | Kd (KIT WT D4-5蛋白): 154 nM | Kd (KIT ITD D4-5蛋白): 17.1 nM
